Legend:
[1] = molecular target: T1, recombinant human integrin αvβ8 ectodomain (human, UniProt P06756 31-992; P26012 43-681); assay: KinExA, solution-based affinity; antigen form not stated
T1 construct: Made in ExpiCHO cells from plasmids encoding the entire ectodomains; also called avb8; Human Integrin alpha V beta 8 (αvβ8) protein
Excerpt: Samples with serial dilutions are drawn over solid-phase beads coupled with one binding partner to capture the complimentary binding molecule, which is detected by flow of fluorophore-labeled antibody solution binding to a separate epitope on the same molecule being measured. Signals are used to calculate free concentration in solution after equilibrium is reached (i.e. to determine binding affinity KD), or under pre-equilibrium conditions over time (i.e. to determine binding kinetics). Free antigen remaining in solution at equilibrium for varying initial antibody concentrations in constant initial concentration of antigen as determined by the KinExA software, based on optimized least-squares fitting to a reversible binding equation.
A Kinetic Exclusion Assay (KinExA®, Sapidyne Instruments, Inc., Boise, ID) was used to measure the binding affinity of H4C8 (Seq ID NOs. 34, 35) produced with the CH1-CH3 domain from IgG4 (Seq ID NO: 59). […] Samples with serial dilutions are drawn over solid-phase beads coupled with one binding partner to capture the complimentary binding molecule, which is detected by flow of fluorophore-labeled antibody solution binding to a separate epitope on the same molecule being measured. […]

[2] = molecular target: T2, human integrin αvβ8 on transfected cells (CHO cells stably transfected; HEK 293 cells stably expressing αvβ8) (human, UniProt P06756 31-1048; P26012 43-769); assay: flow cytometry on unfixed CHO cells expressing human αvβ8, antibody titrated, hyperbolic least-squares fit (m3 = KD); curves on D00025 [Cont.]
T2 construct: whole, on cells; also called CHO αvβ8 cells; αvβ8 expressing CHO cells
T2 sequence (P06756 31-1048, chain 1 of 2): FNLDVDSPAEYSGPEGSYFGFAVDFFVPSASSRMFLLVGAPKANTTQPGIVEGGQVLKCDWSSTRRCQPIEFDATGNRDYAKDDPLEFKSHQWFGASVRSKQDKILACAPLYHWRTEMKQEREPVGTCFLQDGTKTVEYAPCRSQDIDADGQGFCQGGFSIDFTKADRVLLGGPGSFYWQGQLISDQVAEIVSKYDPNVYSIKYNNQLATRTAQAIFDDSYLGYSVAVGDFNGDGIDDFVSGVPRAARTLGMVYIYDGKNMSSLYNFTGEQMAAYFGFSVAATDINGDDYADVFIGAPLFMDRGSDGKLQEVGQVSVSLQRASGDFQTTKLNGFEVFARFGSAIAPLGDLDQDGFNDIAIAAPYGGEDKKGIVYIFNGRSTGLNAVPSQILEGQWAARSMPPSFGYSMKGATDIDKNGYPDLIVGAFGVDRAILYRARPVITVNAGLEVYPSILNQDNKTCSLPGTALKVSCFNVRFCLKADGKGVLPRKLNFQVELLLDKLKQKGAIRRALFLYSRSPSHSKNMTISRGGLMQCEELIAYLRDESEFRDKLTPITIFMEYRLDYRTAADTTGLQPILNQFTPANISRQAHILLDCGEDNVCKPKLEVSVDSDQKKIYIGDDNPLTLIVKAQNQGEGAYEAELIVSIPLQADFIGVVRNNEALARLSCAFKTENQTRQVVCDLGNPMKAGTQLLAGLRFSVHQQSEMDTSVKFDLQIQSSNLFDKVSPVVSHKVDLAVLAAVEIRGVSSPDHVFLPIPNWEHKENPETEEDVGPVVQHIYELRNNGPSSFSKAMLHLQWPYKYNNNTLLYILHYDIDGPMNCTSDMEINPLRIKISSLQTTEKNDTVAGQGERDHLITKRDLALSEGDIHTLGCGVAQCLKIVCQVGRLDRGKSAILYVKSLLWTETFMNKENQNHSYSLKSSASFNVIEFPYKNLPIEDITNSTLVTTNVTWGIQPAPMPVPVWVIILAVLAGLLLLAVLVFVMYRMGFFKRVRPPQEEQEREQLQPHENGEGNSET
T2 sequence (P26012 43-769, chain 2 of 2): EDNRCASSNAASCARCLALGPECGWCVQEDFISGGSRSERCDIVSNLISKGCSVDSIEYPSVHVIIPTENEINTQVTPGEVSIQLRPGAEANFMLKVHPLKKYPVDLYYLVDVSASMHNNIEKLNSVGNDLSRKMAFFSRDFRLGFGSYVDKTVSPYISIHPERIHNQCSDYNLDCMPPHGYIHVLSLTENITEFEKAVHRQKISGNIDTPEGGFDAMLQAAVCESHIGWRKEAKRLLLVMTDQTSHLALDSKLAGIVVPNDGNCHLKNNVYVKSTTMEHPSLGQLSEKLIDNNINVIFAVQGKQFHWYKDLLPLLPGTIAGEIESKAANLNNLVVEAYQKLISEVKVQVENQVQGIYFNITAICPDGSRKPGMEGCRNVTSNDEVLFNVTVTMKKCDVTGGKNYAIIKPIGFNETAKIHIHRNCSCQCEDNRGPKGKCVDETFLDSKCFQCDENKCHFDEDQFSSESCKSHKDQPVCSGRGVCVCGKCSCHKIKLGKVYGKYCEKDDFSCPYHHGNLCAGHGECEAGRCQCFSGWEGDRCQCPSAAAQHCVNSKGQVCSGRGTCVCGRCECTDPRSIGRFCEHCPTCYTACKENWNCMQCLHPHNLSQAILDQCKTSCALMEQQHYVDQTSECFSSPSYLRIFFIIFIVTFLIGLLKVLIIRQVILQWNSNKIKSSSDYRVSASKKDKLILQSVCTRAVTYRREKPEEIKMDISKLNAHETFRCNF
Procedure: (§1) FIG. 17: Characterization of cell surface binding of humanized affinity optimized anti-αvβ8 antibodies. The cell surface binding affinities of H4C8, H4G9, H4C10, H4G8 compared to HuC6D4F12 expressed as IgG4 (S228P to prevent arm exchange, R409K and L445P to reduce aggregation and to promote stability). […] Cell surface affinity was determined using the least-squares fit model based on the hyperbolic equation y=m1+m2*m0/(m3+m0), where y=MFI at different avb8 concentrations; m0=αvβ8 concentration; m1=MFI with no αvβ8; m2=MFI at saturation; and m3=KD.
(§2) FIG. 18: Binding characteristics of H4C8 of formalin fixed αvβ8 compared to HuC6D4F12 or ADWA11 2.4 (from Pat no. US2020/0079855 A1). CHO αvβ8 expressing cells were fixed in 2% buffered formalin in PBS for 15 min at RT and then stained at the indicated concentrations as described in FIG. 17. The binding affinities to unfixed or formalin fixed cells is shown. Cell surface affinity was determined using the least-squares fit model based on the hyperbolic equation y=m1+m2*m0/(m3+m0), where y=MFI at different αvβ8 concentrations; m0=αvβ8 concentration; m1=MFI with no αvβ8; m2=MFI at saturation; and m3=KD.

[3] = molecular target: T1, recombinant human integrin αvβ8 …; assay: cell-based or functional assay
[4] = molecular target: T3, integrin αvβ1 ectodomain (immobilized) (Homo sapiens (Human), UniProt P06756 31-992; P05556 21-728); assay: ELISA on immobilized integrin ectodomains plated at 1 µg/ml, blocked with 1% BSA
T3 construct: R&D Systems; copies: 1 + 1
Procedure: (§3) FIG. 20: H4C8 maintains ability to block αvβ8-mediated TGF-β activation similar to HuC6D4F12 while maintaining specificity for αvβ8. A) Shown are inhibition curves for the indicated antibody abilities to block the ability of immobilized human αvβ8 to activate human L-TGF-β presented on the cell surface of TMLC by GARP. The assays were performed exactly as described in (Seed et al, Sci Immunol, 2021 and Campbell, et al, Cell 2019). The estimated ED50 values are shown. The antibodies used were HuC6D4 IgG2a, HuC6D4F12 IgG2a or H3.H12, H4C8 or H4C8m (murine VL Fr4) as human IgG4. B) The specificity of H4C8 was tested against immobilized ectodomains of αvβ1, αvβ3, αvβ5, αvβ6 and αvβ8 (either purchased from R &D systems or produced in ExpiCHO cells. All ectodomains were plated at 1 μg/ml and after washing, wells were blocked with 1% BSA. The indicated antibodies (either human IgG4 isotype or H4C8 IgG4).

[5] = molecular target: T4, integrin αvβ5 ectodomain (immobilized) (Homo sapiens (Human), UniProt P06756 31-992; P18084 24-719); assay: as above
T4 construct: R&D Systems; copies: 1 + 1
Procedure: as §3

[6] = molecular target: T5, integrin αvβ3 ectodomain (immobilized) (Homo sapiens (Human), UniProt P06756 31-992; P05106 27-718); assay: as above
T5 construct: Bought from R&D Systems or made in ExpiCHO cells; copies: 1 + 1
T5 sequence (P06756 31-992 limits assumed, chain 1 of 2): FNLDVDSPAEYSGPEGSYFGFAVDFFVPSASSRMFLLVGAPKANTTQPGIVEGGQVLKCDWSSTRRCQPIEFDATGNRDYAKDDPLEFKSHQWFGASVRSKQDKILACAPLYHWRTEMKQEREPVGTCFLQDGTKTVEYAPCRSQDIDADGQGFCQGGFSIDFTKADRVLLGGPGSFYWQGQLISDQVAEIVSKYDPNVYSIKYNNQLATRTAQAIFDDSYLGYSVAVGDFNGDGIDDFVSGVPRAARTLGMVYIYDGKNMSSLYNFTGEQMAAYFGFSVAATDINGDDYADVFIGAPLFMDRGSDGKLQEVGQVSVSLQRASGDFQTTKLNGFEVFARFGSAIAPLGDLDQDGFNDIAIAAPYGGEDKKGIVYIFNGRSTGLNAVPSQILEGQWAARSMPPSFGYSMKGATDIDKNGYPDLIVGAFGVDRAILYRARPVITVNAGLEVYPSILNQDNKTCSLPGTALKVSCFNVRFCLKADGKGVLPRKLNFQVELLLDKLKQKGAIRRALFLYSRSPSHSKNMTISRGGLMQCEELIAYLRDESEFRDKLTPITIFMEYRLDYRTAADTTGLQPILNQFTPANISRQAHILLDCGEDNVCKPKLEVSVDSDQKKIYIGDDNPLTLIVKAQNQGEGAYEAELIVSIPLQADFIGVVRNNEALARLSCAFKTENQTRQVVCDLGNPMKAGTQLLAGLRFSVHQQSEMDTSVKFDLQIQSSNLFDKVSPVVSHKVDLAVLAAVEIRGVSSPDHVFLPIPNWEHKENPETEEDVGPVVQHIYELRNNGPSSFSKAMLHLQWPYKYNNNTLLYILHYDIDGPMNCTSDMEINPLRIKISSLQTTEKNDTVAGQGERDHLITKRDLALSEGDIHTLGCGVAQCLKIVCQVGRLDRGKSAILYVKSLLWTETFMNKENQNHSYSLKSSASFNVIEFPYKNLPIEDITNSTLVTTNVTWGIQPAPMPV
T5 sequence (P05106 27-718 limits assumed, chain 2 of 2): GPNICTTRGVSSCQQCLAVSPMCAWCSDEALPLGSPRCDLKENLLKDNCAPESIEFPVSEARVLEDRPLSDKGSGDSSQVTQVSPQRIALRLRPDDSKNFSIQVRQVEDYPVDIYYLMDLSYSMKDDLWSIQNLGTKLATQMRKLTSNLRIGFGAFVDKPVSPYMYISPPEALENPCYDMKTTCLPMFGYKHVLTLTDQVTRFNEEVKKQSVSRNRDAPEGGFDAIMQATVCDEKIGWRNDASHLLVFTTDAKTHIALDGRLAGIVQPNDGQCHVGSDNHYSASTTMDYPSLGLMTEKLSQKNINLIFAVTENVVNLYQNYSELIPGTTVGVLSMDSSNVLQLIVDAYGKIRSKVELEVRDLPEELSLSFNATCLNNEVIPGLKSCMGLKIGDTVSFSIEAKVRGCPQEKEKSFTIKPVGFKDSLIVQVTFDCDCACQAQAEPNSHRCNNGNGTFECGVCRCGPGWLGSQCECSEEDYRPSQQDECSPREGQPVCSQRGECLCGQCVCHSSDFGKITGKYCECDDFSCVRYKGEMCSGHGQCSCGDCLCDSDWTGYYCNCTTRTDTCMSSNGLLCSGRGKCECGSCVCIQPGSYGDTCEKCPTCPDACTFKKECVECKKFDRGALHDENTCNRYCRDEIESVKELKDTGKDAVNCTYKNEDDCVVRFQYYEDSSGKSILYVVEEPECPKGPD
Procedure: as §3

[7] = molecular target: T6, integrin αvβ6 ectodomain (immobilized) (human, UniProt P06756 31-992; P18564 22-709); assay: as above
T6 construct: extracellular domain; Bought from R&D Systems or made in ExpiCHO cells; also called immobilized human αvβ6
T6 sequence (P06756 31-992, chain 1 of 2): as the sequence (P06756 31-992 limits assumed, chain 1 of 2) above
T6 sequence (P18564 22-709, chain 2 of 2): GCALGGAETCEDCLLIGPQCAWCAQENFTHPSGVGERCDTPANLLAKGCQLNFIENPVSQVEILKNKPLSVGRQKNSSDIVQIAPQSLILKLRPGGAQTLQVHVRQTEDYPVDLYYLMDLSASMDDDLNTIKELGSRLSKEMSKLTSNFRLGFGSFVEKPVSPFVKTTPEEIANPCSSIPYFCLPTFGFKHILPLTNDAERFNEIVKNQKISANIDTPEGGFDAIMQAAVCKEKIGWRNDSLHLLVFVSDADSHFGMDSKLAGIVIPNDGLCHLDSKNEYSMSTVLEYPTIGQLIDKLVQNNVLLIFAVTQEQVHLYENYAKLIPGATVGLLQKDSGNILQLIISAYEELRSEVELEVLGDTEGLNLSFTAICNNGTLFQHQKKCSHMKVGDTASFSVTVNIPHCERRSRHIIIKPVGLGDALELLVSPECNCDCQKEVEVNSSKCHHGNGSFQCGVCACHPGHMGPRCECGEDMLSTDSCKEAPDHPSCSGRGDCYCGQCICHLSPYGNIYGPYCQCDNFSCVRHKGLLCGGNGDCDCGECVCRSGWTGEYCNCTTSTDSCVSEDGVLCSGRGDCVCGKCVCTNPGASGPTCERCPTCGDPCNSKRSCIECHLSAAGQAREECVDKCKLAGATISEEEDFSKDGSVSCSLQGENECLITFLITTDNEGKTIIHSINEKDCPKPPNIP
Procedure: as §3

[8] = molecular target: T1, recombinant human integrin αvβ8 …; assay: cell-based or functional assay; remark: listed apart in the source
[9] = molecular target: T2, human integrin αvβ8 on transfected …; assay: flow cytometry on CHO cells expressing human αvβ8 fixed in 2% buffered formalin for 15 min, antibody titrated, hyperbolic least-squares fit (m3 = KD); curves on D00025 [Cont.]
Procedure: as §1, §2

[10] = molecular target: T2, human integrin αvβ8 on transfected …; assay: flow cytometry, surface binding to CHO αvβ8 cells

T1 sequence (P06756 31-992 limits assumed, chain 1 of 2): as the sequence (P06756 31-992 limits assumed, chain 1 of 2) above
T1 sequence (P26012 43-681 limits assumed, chain 2 of 2): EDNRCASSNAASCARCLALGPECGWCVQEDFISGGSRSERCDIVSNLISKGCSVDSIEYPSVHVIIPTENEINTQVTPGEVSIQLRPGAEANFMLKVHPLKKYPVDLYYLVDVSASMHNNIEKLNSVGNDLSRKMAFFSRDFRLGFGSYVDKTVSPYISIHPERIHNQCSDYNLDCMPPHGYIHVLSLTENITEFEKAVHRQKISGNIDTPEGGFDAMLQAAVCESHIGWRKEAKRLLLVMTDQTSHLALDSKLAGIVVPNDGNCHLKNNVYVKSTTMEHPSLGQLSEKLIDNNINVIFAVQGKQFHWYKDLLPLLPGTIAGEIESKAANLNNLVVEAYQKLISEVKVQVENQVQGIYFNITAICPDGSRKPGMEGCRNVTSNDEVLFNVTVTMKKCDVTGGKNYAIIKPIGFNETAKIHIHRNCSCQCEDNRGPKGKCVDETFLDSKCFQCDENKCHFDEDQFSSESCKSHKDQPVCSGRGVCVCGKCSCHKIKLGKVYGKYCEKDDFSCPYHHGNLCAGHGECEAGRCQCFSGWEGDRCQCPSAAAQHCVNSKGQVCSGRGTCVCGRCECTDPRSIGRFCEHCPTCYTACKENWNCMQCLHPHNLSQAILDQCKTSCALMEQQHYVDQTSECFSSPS

| Binder | Kd [1] | Kd [2] | ED50 of the inhibition of αvβ8-mediated TGF-β activation (immobilized αvβ8, TMLC GARP/L-TGF-β reporter cells) [3] | binding result [4] | binding result [5] | binding result [6] | binding result [7] | EC50 of inhibition of αvβ8-mediated TGF-β activation [8] | Kd [9] | fold lower affinity than F12 mouse IgG2a [10] |
| --- | --- | --- | --- | --- | --- | --- | --- | --- | --- | --- |
| H4C8 human IgG4 (antibody, V domains shown, also called H4C8 IgG4) VH: QVQLVQSGAEVKKPGASVKVSCKVSGYTLTRQSMHWVRQAPGKGLEWMGRINTETGEPTYAQKFQGRVTMTQDTSTDTAYMELSSLRSEDTAVYFCAIFYYGRDTWGQGTTVTVSS VL: EIVMTQSPATLSVSPGERVTLSCRSSQSLLHSRSRKNYLAWYQQKPGQAPRLLIYWASTRETGVPARFSGSGSGTEFTLTISSLQSEDFAVYYCKQSYNLLSFGQGTKVEIKR | 7.07 pM | 2.6 nM | 0.01 µg/mL | no binding | no binding | no binding | no binding | 0.1 µM | 3.6 nM | – |
| Clone H1.1 as human IgG4 (antibody, V domains shown) VH: QVQLVQSGAEVKKPGASVKVSCKVSGYTLTKLSMHWVRQAPGKGLEWMGRINTEDGEPIYAQKFQGRVTMTEDTSTDTAYMELSSLRSEDTAVYYCAIFYYGRDSWGQGTTLTVSS VL: EIVMTQSPATLSVSPGERATLSCRASQSLLHSRTRKNYLAWYQQKPGQAPRLLIYWASTRATGIPARFSGSGSGTEFTLTISSLQSEDFAVYYCKQSYNLLSFGQGTVLEIKR | – | – | – | – | – | – | – | – | – | 70 fold |

From patent publication US20260139057A1 (University of California, published 2026)
